Positions count from the first letter of the chain named.

The record followed here is patent US20110044994A1 (THERACLONE SCIENCES, published 2011).

Assay [1] addresses T1, recombinant, monomeric gp120JR-CSF (HIV-1, UniProt P20871 32-503).
T1 construct: domain: gp120; also called JR-CSF gp120; JR-CSFgp120
As to the kind of experiment: mAb specificity by ELISA. A general note: An ELISA detects its analyte on a solid surface through an enzyme-linked reagent.

Assay [2] concerns the target T2, recombinant gp41HxB2 (HIV-1, UniProt P04578 541-682).
T2 construct: domain: gp41
As to the kind of experiment: ELISA.

Assay [3] concerns the target T2, recombinant gp41HxB2. Kind of assay: ELISA screen of B cell culture supernatants.
In the next assay the target is 92RW020 pseudovirus Env (HIV-1). As to the kind of experiment: cell-based or functional assay.
In another assay the target is ADA pseudovirus Env (HIV-1). As to the kind of experiment: cell-based or functional assay.
Assay [4] concerns the target T1, recombinant, monomeric gp120JR-CSF. As to the kind of experiment: ELISA screen of B cell culture supernatants.
The target of assay [5] is JR-CSF pseudovirus (HIV-1 Env on the virions) (HIV-1, UniProt P20871 32-848). As to the kind of experiment: cell-based or functional assay.
The target in assay [6] is JR-FL (E168K) pseudovirus Env (HIV-1). As to the kind of experiment: cell-based or functional assay.

B1: 1456_P20 (PG20) (antibody, human IgG1, kappa, V domains shown)
VH: QVRLVQSGPEVKKPGSSVTVSCQASGGTFSSYAFTWVRQAPGQGLEWLGMVTPIFGEAKYSQRFEGRVTITADESTSTTSIELRGLTSEDTAIYYCARDRRAVPIATDNWLDPWGQGTLVTVSS
VL: DIQLTQSPSSLSASVGDRVSITCRASQTINNYLNWYQQTPGKAPKLLIYGASNLQNGVPSRFSGSGSGTDFTLTISSLQPEDFATYYCQQSFSTPRTFGQGTRLDIKR
Regarding B1, the binding result in assay [1] is recorded as “binds”; in the assay with recombinant gp41HxB2 [2] it was “no binding”.

B2: 1460_G14 (PGG14) (antibody, human IgG1, kappa, V domains shown)
VH: QVLLVQSGTEVKKPGSSVKVSCQASGGAFSSYAFSWVRQAPGQGLEWMGMITPVFGETKYAPRFQGRLTLTAEESLSTTYMELRSLTSDDTAFYYCTRDRRVVPMATDNWLDPWGQGTLVTVSS
VL: B1 VL with S20T, I21V, N30H, N31T, T39I, N53T, N56S, S76N, F92Y
As for B2, the binding result in assay [1] is recorded as “binds”; with recombinant gp41HxB2 [2], “no binding”.

B3: 1496_C09 (PG9) (antibody, V domains shown)
VH: QRLVESGGGVVQPGSSLRLSCAASGFDFSRQGMHWVRQAPGQGLEWVAFIKYDGSEKYHADSVWGRLSISRDNSKDTLYLQMNSLRVEDTATYFCVREAGGPDYRNGYNYYDFYDGYYNYHYMDVWGKGTTVTVSS
VL: QSALTQPASVSGSPGQSITISCNGTSNDVGGYESVSWYQQHPGKAPKVVIYDVSKRPSGVSNRFSGSKSGNTASLTISGLQAEDEGDYYCKSLTSTRRRVFGTGTKLTVLG
In the case of B3, in the assay with recombinant gp41HxB2 [3], the binding result is listed as “no binding”. Further, the “IC50 (ug/ml), pseudovirus neutralization, TZM-bl assay” value was 0.1 µg/mL with 92RW020 pseudovirus Env and 0.2 µg/mL with ADA pseudovirus Env.

B4: 1495_C14 (PGC14) (antibody, human IgG1, lambda, V domains shown)
VH: DGHLVQSGVEVKKTGATVKISCKVSGYSFIDYYLHWVQRAPGKGLEWVGLIDPENGEARYAEKFQGRVTIIADTSIDTGYMEMRSLKSEDTAVYFCAAGAVGADSGSWFDPWGQGTLVTVSS
VL: SYELTQPPSVSVSPGQTASITCSGSKLGDKYVSWYQLRPGQSPILVMYENDRRPSGIPERFSGSNSGDTATLTISGTQALDEADFYCQAWETTTTTFVFFGGGTQLTVLG
For B4, the binding result in assay [1] is listed as “binds”; with recombinant gp41HxB2 [2], “no binding”.

B5: 1443_C16 (PG16) (antibody, V domains shown)
VH: QEQLVESGGGVVQPGGSLRLSCLASGFTFHKYGMHWVRQAPGKGLEWVALISDDGMRKYHSDSMWGRVTISRDNSKNTLYLQFSSLKVEDTAMFFCAREAGGPIWHDDVKYYDFNDGYYNYHYMDVWGKGTTVTVSS
VL: QSALTQPASVSGSPGQTITISCNGTSSDVGGFDSVSWYQQSPGKAPKVMVFDVSHRPSGISNRFSGSKSGNTASLTISGLHIEDEGDYFCSSLTDRSHRIFGGGTKVTVLG
As to B5, the binding result (in the assay with recombinant gp41HxB2 [3]; in assay [4]) was “no binding” in each case. The “IC50 (ug/ml), pseudovirus neutralization, TZM-bl assay” value with 92RW020 pseudovirus Env was 0.09 µg/mL; with ADA pseudovirus Env, 0.004 µg/mL; in assay [5], 0.001 µg/mL; in assay [6], 0.006 µg/mL.
